According to patent US20200206266A1 (JULIUS MAXIMILIANS UNIVERSIT T W RZBURG, published 2020):

B1: 4G8 FLT3 CAR (other)
chain: QVQLQQPGAELVKPGASLKLSCKSSGYTFTSYWMHWVRQRPGHGLEWIGEIDPSDSYKDYNQKFKDKATLTVDRSSNTAYMHLSSLTSDDSAVYYCARAITTTPFDFWGQGTTLTVSSGGGGSGGGGSGGGGSDIVLTQSPATLSVTPGDSVSLSCRASQSISNNLHWYQQKSHESPRLLIKYASQSISGIPSRFSGSGSGTDFTLSINSVETEDFGVYFCQQSNTWPYTFGGGTKLEIKRESKYGPPCPPCPMFWVLVVVGGVLACYSLLVTVAFIIFWVRSKRSRGGHSDYMNMTPRRPGPTRKHYQPYAPPRDFAAYRSRVKFSRSADAPAYQQGQNQLYNELNLGRREEYDVLDKRRGRDPEMGGKPRRKNPQEGLYNELQKDKMAEAYSEIGMKGERRRGKGHDGLYQGLSTATKDTYDALHMQALPPR
B2: anti-FLT3 BV10 mAb (Biolegend) (antibody, V domains shown)
VH: QVQLKQSGPGLVQPSQSLSITCTVSGFSLTNYGLHWVRQSPGKGLEWLGVIWSGGSTDYNAAFISRLSISKDNSKSQVFFKMNSLQADDTAIYYCARKGGIYYANHYYAMDYWGQGTSVTVSS
VL: DIVMTQSPSSLSVSAGEKVTMSCKSSQSLLNSGNQKNYMAWYQQKPGQPPKLLIYGASTRESGVPDRFTGSGSGTDFTLTISSVQAEDLAVYYCQNDHSYPLTFGAGTKLELKR
B3: BV10 FLT3 CAR (other)
chain: QVQLKQSGPGLVQPSQSLSITCTVSGFSLTNYGLHWVRQSPGKGLEWLGVIWSGGSTDYNAAFISRLSISKDNSKSQVFFKMNSLQADDTAIYYCARKGGIYYANHYYAMDYWGQGTSVTVSSGGGGSGGGGSGGGGSDIVMTQSPSSLSVSAGEKVTMSCKSSQSLLNSGNQKNYMAWYQQKPGQPPKLLIYGASTRESGVPDRFTGSGSGTDFTLTISSVQAEDLAVYYCQNDHSYPLTFGAGTKLELKRESKYGPPCPPCPMFWVLVVVGGVLACYSLLVTVAFIIFWVRSKRSRGGHSDYMNMTPRRPGPTRKHYQPYAPPRDFAAYRSRVKFSRSADAPAYQQGQNQLYNELNLGRREEYDVLDKRRGRDPEMGGKPRRKNPQEGLYNELQKDKMAEAYSEIGMKGERRRGKGHDGLYQGLSTATKDTYDALHMQALPPR
B4: mouse-anti-human-FLT3 mAb (clone 4G8, BD Pharmagin, BD Biosciences) (antibody, V domains shown)
VH: QVQLQQPGAELVKPGASLKLSCKSSGYTFTSYWMHWVRQRPGHGLEWIGEIDPSDSYKDYNQKFKDKATLTVDRSSNTAYMHLSSLTSDDSAVYYCARAITTTPFDFWGQGTTLTVSS
VL: DIVLTQSPATLSVTPGDSVSLSCRASQSISNNLHWYQQKSHESPRLLIKYASQSISGIPSRFSGSGSGTDFTLSINSVETEDFGVYFCQQSNTWPYTFGGGTKLEIKR
notes: Bought, fluorochrome-conjugated mouse antibody, used with a mouse IgG1 isotype control; also called anti-FLT3 mAb (4G8); anti-FLT3 4G8 mAb

Legend:
[1] = target: T1, FLT3 with internal tandem duplication (FLT3-ITD) (human, UniProt P36888 27-543); assay: cell-based or functional assay
T1 sequence (looked up): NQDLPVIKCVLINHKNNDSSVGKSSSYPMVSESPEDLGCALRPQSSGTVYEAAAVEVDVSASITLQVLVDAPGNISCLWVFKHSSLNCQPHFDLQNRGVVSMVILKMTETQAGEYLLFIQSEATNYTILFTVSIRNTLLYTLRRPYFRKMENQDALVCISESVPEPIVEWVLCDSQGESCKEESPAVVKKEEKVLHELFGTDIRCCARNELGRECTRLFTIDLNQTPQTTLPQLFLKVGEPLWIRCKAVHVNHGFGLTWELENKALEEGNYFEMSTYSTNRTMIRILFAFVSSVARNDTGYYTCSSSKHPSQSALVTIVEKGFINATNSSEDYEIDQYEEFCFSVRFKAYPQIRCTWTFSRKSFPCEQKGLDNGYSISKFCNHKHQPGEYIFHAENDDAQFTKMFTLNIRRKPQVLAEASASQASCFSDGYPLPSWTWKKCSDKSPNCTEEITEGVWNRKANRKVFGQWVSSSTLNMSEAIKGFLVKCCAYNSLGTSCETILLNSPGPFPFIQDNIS

[2] = target: T2, FMS-like tyrosine kinase 3 (FLT3), wild-type (human, UniProt P36888 27-993); assay: flow cytometry, staining of THP-1 cells (FLT3 wild-type)
T2 construct: whole, on cells; also called CD135; wt FLT3
T2 sequence (looked up): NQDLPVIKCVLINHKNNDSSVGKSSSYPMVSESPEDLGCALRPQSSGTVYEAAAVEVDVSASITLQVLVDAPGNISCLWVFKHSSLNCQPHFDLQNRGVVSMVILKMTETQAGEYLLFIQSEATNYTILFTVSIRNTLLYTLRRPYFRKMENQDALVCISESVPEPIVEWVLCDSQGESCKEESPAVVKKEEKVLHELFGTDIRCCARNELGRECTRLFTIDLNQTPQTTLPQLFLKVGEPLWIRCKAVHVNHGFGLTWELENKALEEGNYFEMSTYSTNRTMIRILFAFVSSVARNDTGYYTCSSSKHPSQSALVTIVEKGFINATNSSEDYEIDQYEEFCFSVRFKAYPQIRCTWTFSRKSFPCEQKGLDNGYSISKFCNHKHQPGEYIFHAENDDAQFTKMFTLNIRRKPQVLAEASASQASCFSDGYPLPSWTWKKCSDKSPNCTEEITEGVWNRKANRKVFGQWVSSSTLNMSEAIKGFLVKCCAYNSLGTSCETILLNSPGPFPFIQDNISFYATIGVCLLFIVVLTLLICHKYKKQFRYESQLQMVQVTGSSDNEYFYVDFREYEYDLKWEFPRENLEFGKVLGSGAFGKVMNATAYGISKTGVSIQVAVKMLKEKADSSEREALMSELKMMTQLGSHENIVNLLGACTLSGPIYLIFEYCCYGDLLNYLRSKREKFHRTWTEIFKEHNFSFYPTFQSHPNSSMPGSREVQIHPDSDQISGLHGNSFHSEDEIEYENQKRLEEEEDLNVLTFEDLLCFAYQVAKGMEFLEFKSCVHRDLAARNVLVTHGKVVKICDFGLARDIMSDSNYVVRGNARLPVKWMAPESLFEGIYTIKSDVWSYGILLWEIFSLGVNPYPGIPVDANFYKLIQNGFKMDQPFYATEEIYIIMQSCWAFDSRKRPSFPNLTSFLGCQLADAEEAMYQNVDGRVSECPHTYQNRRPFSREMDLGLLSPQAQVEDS
Text: (a) Flow cytometric analysis of FLT3 expression on AML cell lines (MOLM-13, THP-1, MV4;11) and primary AML blasts (pt #1 and #2).

Binder	IFN-γ production, MOLM-13^creno against MOLM-13^native [1] [fold]	IFN-γ production, MOLM-13^mido against MOLM-13^native [1] [fold]	IFN-γ production, MOLM-13^quiza against MOLM-13^native [1] [fold]	IL-2 production, MOLM-13^creno against MOLM-13^native [1] [fold]	IL-2 production, MOLM-13^mido against MOLM-13^native [1] [fold]	IL-2 production, MOLM-13^quiza against MOLM-13^native [1] [fold]	increase in cytolytic activity, MOLM-13^creno against MOLM-13^native, 2.5:1 E:T [1] [fold]	increase in cytolytic activity, MOLM-13^creno against MOLM-13^native, 5:1 E:T [1] [fold]	increase in cytolytic activity, MOLM-13^mido against MOLM-13^native, 2.5:1 E:T [1] [fold]	increase in cytolytic activity, MOLM-13^mido against MOLM-13^native, 5:1 E:T [1] [fold]	increase in cytolytic activity, MOLM-13^quiza against MOLM-13^native, 2.5:1 E:T [1] [fold]	increase in cytolytic activity, MOLM-13^quiza against MOLM-13^native, 5:1 E:T [1] [fold]	proliferation index, MOLM-13^mido against MOLM-13^native [1] [fold]	further results
B1	1.4	2.3	1.4	3.9	12.4	1.9	2.5	2	1.5	1.4	17.7	1.6	1.8	% proliferation, CAR-T vs MOLM-13^native [1]: 31.3%
B2	–	–	–	–	–	–	–	–	–	–	–	–	–	ADCC, percentage of MV4;11 cells eliminated, crenolanib pre-treatment against none [1]: 3 fold; ADCC, percentage of MV4;11 cells eliminated, midostaurin pre-treatment against none [1]: 2 fold; ADCC, percentage of MV4;11 cells eliminated, quizartinib pre-treatment against none [1]: 3.5 fold
B3	1.6	2.1	1.2	2	6.6	1.9	1.8	1.6	1.6	1.3	3.8	1.6	1.8	IFN-γ production, CAR-T vs MOLM-13^native [1]: 1480 pg/mL; proliferation index, MOLM-13^creno against MOLM-13^native [1]: 1.3 fold; proliferation index, MOLM-13^quiza against MOLM-13^native [1]: 1.2 fold
B4	–	–	–	–	–	–	–	–	–	–	–	–	–	binding result [2]: binds
